target: XLF (UniProt Q9H9Q4); assay: NMR titration (2D lineshape, TITAN); details: NMR buffer (composition, salt and pH not in material); 800 MHz, 298 K stated for relaxation measurements; EMSA buffer not given
Sequence (Q9H9Q4 whole entry): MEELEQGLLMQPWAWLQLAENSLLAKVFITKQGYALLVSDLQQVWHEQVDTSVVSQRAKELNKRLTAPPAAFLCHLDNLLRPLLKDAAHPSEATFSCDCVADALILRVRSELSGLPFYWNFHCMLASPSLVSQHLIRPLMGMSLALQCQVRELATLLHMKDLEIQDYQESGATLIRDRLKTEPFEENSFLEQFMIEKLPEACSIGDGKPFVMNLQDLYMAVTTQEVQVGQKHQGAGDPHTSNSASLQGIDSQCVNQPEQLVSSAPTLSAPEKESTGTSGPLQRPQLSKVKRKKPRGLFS

Substance	Kd [µM]
18mer DNA	33.7
15mer DNA	141
21mer DNA	16.2

From doi:10.1101/2023.07.12.548668
